B1: GST–M1 middle domain fusion protein (domain or fragment)
chain: GDPNNMDKAVKLYRKLKREITFHGAKEISLSYSAGALASCMGLIYNRMGAVTTEVAFGLVCATCEQIADSQHRSHRQM
notes: not shown: GST, N-terminal, kept
B4: GST–M1 M+C domain fusion protein (domain or fragment)
chain: GDPNNMDKAVKLYRKLKREITFHGAKEISLSYSAGALASCMGLIYNRMGAVTTEVAFGLVCATCEQIADSQHRSHRQMVTTTNPLIRHENRMVLASTTAKAMEQMAGSSEQAAEAMEVASQARQMVQAMRTIGTHPSSSAGLKNDLLENLQAYQKRMGVQMQRFK
notes: as for B1

Experiments:
Assay in all cases: pull-down
purified NP = purified NP (influenza A virus A/PR/8/34 (PR8), UniProt P03466 1-498); settings: both partners purified
purified NP, sequence (P03466 whole entry): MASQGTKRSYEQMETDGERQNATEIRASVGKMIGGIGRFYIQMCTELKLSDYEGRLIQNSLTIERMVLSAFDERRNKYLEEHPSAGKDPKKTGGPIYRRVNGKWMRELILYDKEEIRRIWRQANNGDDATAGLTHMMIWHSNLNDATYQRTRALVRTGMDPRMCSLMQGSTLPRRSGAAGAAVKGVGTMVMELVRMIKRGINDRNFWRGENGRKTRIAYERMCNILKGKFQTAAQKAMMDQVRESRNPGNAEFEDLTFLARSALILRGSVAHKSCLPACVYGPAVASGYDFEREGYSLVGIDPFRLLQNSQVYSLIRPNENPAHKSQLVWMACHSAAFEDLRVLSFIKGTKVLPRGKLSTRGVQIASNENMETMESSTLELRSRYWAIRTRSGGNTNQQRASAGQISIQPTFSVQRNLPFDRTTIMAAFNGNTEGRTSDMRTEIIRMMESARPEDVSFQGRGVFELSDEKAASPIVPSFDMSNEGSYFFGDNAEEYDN

[1] = biological target: B1; settings: one partner purified
[2] = biological target: B4; settings: one partner purified
[3] = biological target: T1, GST–M1 C-terminal domain fusion protein (influenza A virus A/PR/8/34 (PR8), UniProt P03485 165-252); settings: one partner purified
T1 construct: Cloned into pGEX-3X; not shown: GST, N-terminal, kept

B1
binding result (purified NP): binds

B2: untagged WT radiolabelled M1, in vitro translated (natural protein)
chain: MSLLTEVETYVLSIIPSGPLKAEIAQRLEDVFAGKNTDLEVLMEWLKTRPILSPLTKGILGFVFTLTVPSERGLQRRRFVQNALNGNGDPNNMDKAVKLYRKLKREITFHGAKEISLSYSAGALASCMGLIYNRMGAVTTEVAFGLVCATCEQIADSQHRSHRQMVTTTNPLIRHENRMVLASTTAKAMEQMAGSSEQAAEAMEVASQARQMVQAMRTIGTHPSSSAGLKNDLLENLQAYQKRMGVQMQRFK
binding activity relative to full-length GST–M1 [1]: 2 fold | binding activity relative to full-length GST–M1 [2]: 2 fold | binding activity relative to full-length GST–M1 [3]: ~40%

B3: GST–M1 N+M domain fusion protein (domain or fragment)
chain: MSLLTEVETYVLSIIPSGPLKAEIAQRLEDVFAGKNTDLEVLMEWLKTRPILSPLTKGILGFVFTLTVPSERGLQRRRFVQNALNGNGDPNNMDKAVKLYRKLKREITFHGAKEISLSYSAGALASCMGLIYNRMGAVTTEVAFGLVCATCEQIADSQHRSHRQM
notes: as for B1
binding result (purified NP): binds

B4
binding result (purified NP): binds
